For one assay, the target named is T1, vWF-FVIII complex (Homo sapiens, UniProt P00451).
T1 construct: The purification of FVIII from commercial factor VIII concentrate (Armour Pharmaceutical, Kankakee, IL), by immunoadsorbent chromatography; tissue Armour Pharmaceutical, Kankakee, Ill; host or cells: commercial factor VIII concentrate, both proteins purified in house by immunoadsorbent chromatography
T1 sequence (P00451 1668-2351 limits assumed): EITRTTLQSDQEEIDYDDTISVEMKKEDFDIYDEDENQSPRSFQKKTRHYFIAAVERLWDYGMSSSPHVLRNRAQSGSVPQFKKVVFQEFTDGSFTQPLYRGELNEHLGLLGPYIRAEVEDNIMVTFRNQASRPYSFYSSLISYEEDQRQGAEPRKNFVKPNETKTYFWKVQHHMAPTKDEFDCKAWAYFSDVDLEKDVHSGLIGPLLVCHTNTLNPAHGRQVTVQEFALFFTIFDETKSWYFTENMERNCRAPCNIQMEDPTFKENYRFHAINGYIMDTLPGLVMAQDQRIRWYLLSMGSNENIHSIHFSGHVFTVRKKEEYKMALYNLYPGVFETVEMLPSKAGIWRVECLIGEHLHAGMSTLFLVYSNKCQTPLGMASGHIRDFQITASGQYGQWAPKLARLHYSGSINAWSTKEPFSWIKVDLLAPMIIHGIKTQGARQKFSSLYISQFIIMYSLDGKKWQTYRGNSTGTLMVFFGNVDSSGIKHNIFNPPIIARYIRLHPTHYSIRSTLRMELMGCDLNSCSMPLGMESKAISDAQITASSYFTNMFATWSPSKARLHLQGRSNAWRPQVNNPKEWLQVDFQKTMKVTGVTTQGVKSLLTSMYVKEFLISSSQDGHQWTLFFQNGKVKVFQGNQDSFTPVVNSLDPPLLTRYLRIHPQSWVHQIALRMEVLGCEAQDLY
T1 sequence (P00451 20-759 partner limits assumed): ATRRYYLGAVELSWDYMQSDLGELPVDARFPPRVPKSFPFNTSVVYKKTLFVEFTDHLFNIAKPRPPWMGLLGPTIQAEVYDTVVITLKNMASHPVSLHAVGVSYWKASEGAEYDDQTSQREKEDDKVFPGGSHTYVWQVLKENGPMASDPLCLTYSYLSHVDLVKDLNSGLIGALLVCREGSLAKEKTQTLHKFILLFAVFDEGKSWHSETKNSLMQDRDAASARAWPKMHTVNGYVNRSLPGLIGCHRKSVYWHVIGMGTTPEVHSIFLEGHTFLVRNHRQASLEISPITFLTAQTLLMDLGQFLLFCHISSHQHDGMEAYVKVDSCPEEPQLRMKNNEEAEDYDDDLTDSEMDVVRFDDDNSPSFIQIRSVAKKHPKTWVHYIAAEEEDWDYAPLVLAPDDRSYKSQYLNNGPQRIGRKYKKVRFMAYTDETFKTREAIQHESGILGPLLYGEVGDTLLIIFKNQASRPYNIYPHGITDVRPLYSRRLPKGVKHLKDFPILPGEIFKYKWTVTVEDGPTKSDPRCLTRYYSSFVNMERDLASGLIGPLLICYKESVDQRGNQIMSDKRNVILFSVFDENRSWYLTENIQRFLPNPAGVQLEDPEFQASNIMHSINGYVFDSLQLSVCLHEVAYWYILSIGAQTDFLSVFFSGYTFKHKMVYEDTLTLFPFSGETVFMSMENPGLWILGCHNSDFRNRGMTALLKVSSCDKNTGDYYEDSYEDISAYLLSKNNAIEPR
The assay is described as follows: Dissociation of FVIII from vWF immobilized on polystyrene beads by washing. Format: binding. As for the experimental part: (§1) Competitive inhibition assay of FVIII binding to solid phase vWF: 50 μg of whole unreduced vWF in 1 ml of 0.01M PO4, 0.15M Nacl, 0.02% NaN3, pH 7.3 (PBS), was incubated with three 1/4 inch in diameter polystyrene beads (Pierce Chemical Company, Rockford, Ill.) per 16 mm in diameter tissue culture well for 2 hours at room temperature. The solution was removed and the wells and the beads were then blocked with 1 ml of PBS containing 0.05% Tween-20 and 3% human serum albumin for 1 hour at room temperature. The wells and the beads were stored in the blocking solution at 4° C. for 16 hours to 10 days before use. The wells and beads were then washed ×3 with PBS. 0.05% Tween-20 and incubated for 11/2 hours at room temperature with 1.3 μg of purified FVIII and 0-100 μg of the competitive ligand in 1 ml of 0.05M imidazole, 0.15M Nacl, 0.02% NaN3, pH 7.0, 3 mM CaCl. The beads then were washed ×5 with PBS 0.05% Tween-20 and incubated for 11/2 hour at room temperature with 1.5×10^6 cpm of ^125 I-monoclonal anti-FVIII antibody C2 (specific activity 3.8×10^9 cpm/mg), in 1 ml of PBS 0.05% Tween-20 containing 0.5% bovine gamma globulin. After incubation, the wells and beads were washed with PBS 0.05% Tween-20×2. The beads were then transferred to clean wells and washed an additional four times and separately counted.
54, 1093-1094 (1974), 10-20 mM EDTA according to Tran et al., Thromb. Haemostas. 50, 547-551 (1983) or 1-1.5M Nacl according to Weiss et al., Thromb. Diath. Haemorrh. 27, 212-219 (1972).

Assay [1] has as its target T2, purified FVIII (Homo sapiens, UniProt P00451).
T2 construct: The purification of FVIII from commercial factor VIII concentrate (Armour Pharmaceutical, Kankakee, IL), by immunoadsorbent chromatography; tissue Armour Pharmaceutical, Kankakee, IL; host or cells: commercial factor VIII concentrate, purified in house by immunoadsorbent chromatography
T2 sequence (P00451 1668-2351 limits assumed): T1 sequence (P00451 1668-2351 limits assumed)
T2 sequence (P00451 20-759 partner limits assumed): T1 sequence (P00451 20-759 partner limits assumed)
The assay is described as follows: Crossed immunoelectrophoresis: complex formation of vWF or vWF fragments with FVIII. The class given is binding. Particulars: co-precipitation of 125I-labeled monoclonal anti-FVIII antibody. As for the experimental part: Two dimensional crossed immunoelectrophoresis of vWF was performed as described in Zimmerman et al., Immunoassays: Clinical Laboratory Techniques for the 1980's, pp. 339-349, Alan R. Liss, Inc., New York (1980), with the following modifications. Agarose was poured in a 1.5 cm strip at the bottom of a 10.2 cm×8.3 cm piece of Gelbond (FMC Corporation, Rockland, Me.). Purified vWF or fragments of vWF, FVIII, and ^125 I labeled monoclonal anti-FVIII antibody were mixed in the sample well and electrophoresed. A second gel containing 125-250 μl of rabbit serum containing polyclonal anti-vWF antibodies was then poured and the second dimension was electrophoresed at right angles to the first dimension. Autoradiographs were made of the gels and compared to Coomassie brilliant blue staining of the gels.

Assay [2] has as its target T3, FVIII binding to solid phase vWF (Homo sapiens, UniProt P00451).
T3 construct: The purification of FVIII from commercial factor VIII concentrate (Armour Pharmaceutical, Kankakee, IL), by immunoadsorbent chromatography; tissue Armour Pharmaceutical, Kankakee, Ill; host or cells: commercial factor VIII concentrate, both proteins purified in house by immunoadsorbent chromatography
T3 sequence (P00451 1668-2351 limits assumed): T1 sequence (P00451 1668-2351 limits assumed)
T3 sequence (P00451 20-759 partner limits assumed): T1 sequence (P00451 20-759 partner limits assumed)
The assay can be described thus: Competitive inhibition assay of FVIII binding to solid phase vWF. The following applies: competitive ligand in fluid phase, 0-100 μg in 1 ml. As for the experimental part:
as §1, with “counted. […]” for “counted.”

Assay [3] concerns the target T2, purified FVIII. The assay can be described thus: Binding of purified FVIII to vWF or SP fragment III immobilized on polystyrene beads. The following applies: protein adsorbed on polystyrene beads; detected with 125I-labeled monoclonal anti-FVIII antibody. As for the experimental part:
as §1, with “counted. […]” for “counted.”

Consider `[Ca+2].[Cl-].[Cl-]` [CaCl2], for which the “dissociation of FVIII from vWF” value at vWF-FVIII complex (five washings with imidazole buffered saline containing 3 mM CaCl2) is recorded as “no FVIII dissociation”; at vWF-FVIII complex (five washings with imidazole buffered saline containing 0.25M CaCl2 at 37° C.), 70 ±4%. With `O=C(O)CN(CCN(CC(=O)O)CC(=O)O)CC(=O)O` [EDTA], the “dissociation of FVIII from vWF” value on vWF-FVIII complex (five washings with imidazole buffered saline containing 20 mM EDTA) is on record as 66 ±5%. `[Cl-].[Na+]` [Nacl]: the “dissociation of FVIII from vWF” value on vWF-FVIII complex (five washings with imidazole buffer containing 1.5M Nacl) was determined as 86 ±1%. As for “Reduced and alkylated vWF: vWF after reduction and alkylation”, in the assay with purified FVIII [1], the “complex formation with FVIII” value is recorded as “unable to bind FVIII”. Also, in assay [2], the “inhibition of FVIII binding to immobilized vWF (in words)” value was “no inhibitory effect”. In the case of “vWF: purified von Willebrand factor from commercial factor VIII concentrate”, the “complex formation with FVIII” value with purified FVIII [1] was “demonstrated complex formation”. In the assay with purified FVIII [3], the “binding of purified FVIII to the immobilized protein” value was “bound”. In addition, the “inhibition of FVIII binding to immobilized vWF (in words)” value in assay [2] is listed as “completely inhibit”.

These data come from patent US5597711A, “Factor VIII binding domain of von Willebrand factor” (The Scripps Research Institute, priority 1995, dated 1997).
